Target: full-length SARS-CoV-2 spike protein, wildtype, surface expressed (SARS-CoV-2, UniProt P0DTC2)
Experiment: flow cytometry on cells

B1: human monoclonal antibody 47D11 (antibody, V domains shown)
VH: QVQLQESGPGLVKPSETLSLTCSVSGGSISSHYWSWIRQPPGKGLEWIGYIYYSGSTNHNPSLKSRVTISVDTSKNQFSLKLSSVTAADTAVYYCARGVLLWFGEPIFEIWGQGTMVTVSS
VL: EIVMTQSPATLSVSPGERATLSCRASQSVSSSLAWYQQKPGQAPRLLIYGASTRAPGIPARFSGSGSGTEFTLTISSLQSEDFAVYYCQQYNNWPLTFGGGTKVEI
  binding result: binds
